Assay results published in patent US20170247475A1 (Boehringer Ingelheim, published 2017).
Where two headings read alike, the source gives them in different places.

Tests used:
VEGF [1] = assay: cell-based or functional assay
VEGF [2] = assay: cell-based or functional assay; remark: listed apart in the source
[3] = target: T1, recombinant human VEGF165 (human, UniProt P15692-4 27-191); assay: Biacore, periplasmic extract on hVEGF165 chip, two phase decay fit
T1 construct: also called hVEGF165; rhVEGF165
Target sequence in this assay (P15692 other isoform, or with tags, fused parts or gaps limits assumed): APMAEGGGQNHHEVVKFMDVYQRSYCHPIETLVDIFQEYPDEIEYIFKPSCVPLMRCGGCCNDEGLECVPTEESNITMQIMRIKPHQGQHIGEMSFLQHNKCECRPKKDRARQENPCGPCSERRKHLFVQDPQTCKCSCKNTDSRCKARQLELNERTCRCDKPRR

[4] = target: T1, recombinant human VEGF165; assay: Biacore on VEGF165 (Example 5.5)
Procedure: (§1) Samples are injected for 2 min and allowed to dissociate up to 20 min at a flow rate of 45 μI/min. In between sample injections, the chip surface is regenerated with 100 mM HCl. HBS-EP+(Hepes buffer pH7.4+EDTA) is used as running buffer. Binding curves are fitted using a Two State Reaction model by Biacore T100 Evaluation Software v2.0.1.
Target sequence in this assay (P15692 other isoform, or with tags, fused parts or gaps limits assumed): as above

[5] = target: T1, recombinant human VEGF165; assay: ka1; SPR Biacore T100, hVEGF165 on chip, Two State Reaction model
Procedure: as §1
Target sequence in this assay (P15692 other isoform, or with tags, fused parts or gaps limits assumed): as above
^{(a)}Heterogeneous binding curve resulting in no 1:1 fit, curves are fitted using a Two State Reaction model by Biacore T100 Evaluation Software v2.0.1

VEGF [6] = assay: cell-based or functional assay; remark: listed apart in the source
[7] = target: T1, recombinant human VEGF165; assay: VEGF165/VEGFR2 blocking AlphaScreen
Target sequence in this assay (P15692 other isoform, or with tags, fused parts or gaps limits assumed): as above

[8] = target: T1, recombinant human VEGF165; assay: VEGF165/VEGFR2 AlphaScreen
Target sequence in this assay (P15692 other isoform, or with tags, fused parts or gaps limits assumed): as above

[9] = target: T1, recombinant human VEGF165; assay: AlphaScreen competition, 0.05 nM hVEGF165 and 0.05 nM hVEGFR2-Fc; blocked: hVEGFR2-Fc
[10] = target: T1, recombinant human VEGF165; assay: ka1; SPR Biacore T100 on hVEGF165
Target sequence in this assay (P15692 other isoform, or with tags, fused parts or gaps limits assumed): as above

[11] = target: T1, recombinant human VEGF165; assay: AlphaScreen competition, 0.05 nM hVEGF165 and 0.05 nM hVEGFR2-Fc; blocked: hVEGFR2-Fc; remark: listed apart in the source
[12] = target: T1, recombinant human VEGF165; assay: KD1; SPR Biacore T100 on hVEGF165
[13] = target: T1, recombinant human VEGF165; assay: competition AlphaScreen, blocking of hVEGF165 binding to hVEGFR2-Fc
[14] = target: T1, recombinant human VEGF165; assay: AlphaScreen competition, 0.05 nM hVEGF165 and 0.05 nM hVEGFR2-Fc; blocked: hVEGFR2-Fc; remark: listed apart in the source
[15] = target: T1, recombinant human VEGF165; assay: AlphaScreen competition, 0.05 nM hVEGF165 and 0.05 nM hVEGFR1-Fc; blocked: hVEGFR1-Fc
[16] = target: T1, recombinant human VEGF165; assay: competition AlphaScreen, blocking of hVEGF165 binding to hVEGFR2-Fc; remark: listed apart in the source
[17] = target: T1, recombinant human VEGF165; assay: AlphaScreen competition, 0.05 nM hVEGF165 and 0.05 nM hVEGFR2-Fc; blocked: hVEGFR2-Fc; remark: listed apart in the source
[18] = target: T1, recombinant human VEGF165; assay: competition AlphaScreen, blocking of hVEGF165 binding to hVEGFR1-Fc
[19] = target: T1, recombinant human VEGF165; assay: AlphaScreen competition, 0.05 nM hVEGF165 and 0.05 nM hVEGFR2-Fc; blocked: hVEGFR2-Fc; remark: listed apart in the source
[20] = target: T1, recombinant human VEGF165; assay: AlphaScreen competition, 0.05 nM hVEGF165 and 0.05 nM hVEGFR1-Fc; blocked: hVEGFR1-Fc; remark: listed apart in the source
[21] = target: T1, recombinant human VEGF165; assay: AlphaScreen competition, 0.05 nM hVEGF165 and 0.05 nM hVEGFR2-Fc; blocked: hVEGFR2-Fc; remark: listed apart in the source
[22] = target: T1, recombinant human VEGF165; assay: competition AlphaScreen, blocking of hVEGF165 binding to hVEGFR2-Fc; remark: listed apart in the source
[23] = target: T1, recombinant human VEGF165; assay: AlphaScreen competition, 0.05 nM hVEGF165 and 0.05 nM hVEGFR2-Fc; blocked: hVEGFR2-Fc; remark: listed apart in the source

B1: VEGFBII23B04 (VHH)
VHH: EVQLVESGGGLVQTGDSLRLSCEVSGRTFSSYSMGWFRQAQGKEREFVVAISKGGYKYDSVSLEGRFTISKDNAKNTVYLQINSLKPEDTAVYYCASSRAYGSSRLRLADTYEYWGQGTQVTVSS
notes: also called VEGFBII23B4; VEGFBII23B04 (wt)
% inhibition, VEGF HUVEC proliferation assay (VEGF [1]): 91%
IC50 (nM), VEGF HUVEC proliferation assay (VEGF [1]): 0.36 nM
% inhibition, VEGF HUVEC proliferation assay (VEGF [2]): 92%
IC50 (nM), VEGF HUVEC proliferation assay (VEGF [2]): 0.68 nM
% fast [3]: 12%
Kd [4]: 0.56 nM
kon [5]: 210000 M⁻¹ s⁻¹
IC50 (nM), VEGF HUVEC Erk phosphorylation assay (VEGF [6]): 0.37 nM
% inhibition [7]: 100%
IC50 [7]: 0.152 nM
% inhibition [8]: 100%
IC50 [8]: 0.169 nM

B2: VEGFBII038 (VHH)
VHH: DVQLVESGGGLVQPGGSLRLSCAASGRTFSSYSMGWFRQAPGKEREFVVAISKGGYKYDAVSLEGRFTISRDNAKNTVYLQINSLRPEDTAVYYCASSRAYGSSRLRLADTYEYWGQGTLVTVSS
notes: also called VEGFBII0038; VEGFBII00038
IC50 (read off the curve) [9]: ~0.5 nM
kon [10]: 260000 M⁻¹ s⁻¹
% inhibition, VEGF HUVEC proliferation assay (VEGF [2]): 92%
IC50 (nM), VEGF HUVEC proliferation assay (VEGF [2]): 0.6 nM
IC50 (read off the curve) [11]: ~0.5 nM
Kd [4]: 0.36 nM
Kd [12]: 0.75 nM
IC50 (read off the curve) [13]: ~0.4 nM
% inhibition [7]: 100%
IC50 [7]: 0.143 nM
IC50 (read off the curve) [14]: ~0.5 nM
IC50 (read off the curve) [15]: ~0.8 nM
IC50 (read off the curve) [16]: ~0.4 nM
IC50 (read off the curve) [17]: ~0.2 nM
IC50 (read off the curve) [18]: ~0.4 nM
IC50 (read off the curve) [19]: ~0.4 nM
IC50 (read off the curve) [20]: ~0.8 nM
IC50 (read off the curve) [21]: ~0.4 nM
IC50 (read off the curve) [22]: ~0.4 nM
IC50 (read off the curve) [23]: ~0.2 nM
